Molecular target: Brg1 helicase domain D1D2 (Mus musculus, UniProt Q3TKT4 SEQ:1-431)
Assay: EMSA; 10 mM HEPES-KOH pH 7.3, 10 mM NaCl, 1 mM MgCl2, 1 mM DTT, tRNA carrier, room temp
Details: tags: MBP fusion; label: 5'-biotin
Procedure: Biotin-labelled RNA control probe: [0158] Biotin—5′[…]-3′ (SEQ ID NO 25); and Biotin-labelled RNA probe with m⁶A: [0159] Biotin—5′[…](m⁶A)[…]-3′ (SEQ ID NO 26); were synthesized by Gene Link (Orlando, Fla.). EMSA was performed by using the LightShift™ Chemiluminescent RNA EMSA Kit (Cat. 20158, Thermo Scientific). The labelled probe was incubated with appropriate amounts of recombinant proteins in 10 μl in the 1× binding buffer (10 mM HEPES-KOH, pH 7.3, 10 mM NaCl, 1 mM MgCl2, 1 mM DTT) with 5 μg tRNA carrier at room temperature for 30 min. The reactions were then loaded onto 1% 0.5× TBE agarose gel and transferred to Bright Star Plus positive charged membrane. The biotin-labelled probes were detected and quantified subsequently using Odyssey Infrared Imaging System. The shifted signals were quantified and plotted against amount of the MBP-D1D2 protein ((SEQ ID NO 27) coupled to (SEQ ID NO 2)) with GraphPad Prism (GraphPad). The software facilitates the fitting of nonlinear regression model and calculation of Kd values based on the fitting curve. The errors and r² values were also generated from the fitting curve.

Brg1 helicase domain D1D2, sequence (Q3TKT4 774-1204): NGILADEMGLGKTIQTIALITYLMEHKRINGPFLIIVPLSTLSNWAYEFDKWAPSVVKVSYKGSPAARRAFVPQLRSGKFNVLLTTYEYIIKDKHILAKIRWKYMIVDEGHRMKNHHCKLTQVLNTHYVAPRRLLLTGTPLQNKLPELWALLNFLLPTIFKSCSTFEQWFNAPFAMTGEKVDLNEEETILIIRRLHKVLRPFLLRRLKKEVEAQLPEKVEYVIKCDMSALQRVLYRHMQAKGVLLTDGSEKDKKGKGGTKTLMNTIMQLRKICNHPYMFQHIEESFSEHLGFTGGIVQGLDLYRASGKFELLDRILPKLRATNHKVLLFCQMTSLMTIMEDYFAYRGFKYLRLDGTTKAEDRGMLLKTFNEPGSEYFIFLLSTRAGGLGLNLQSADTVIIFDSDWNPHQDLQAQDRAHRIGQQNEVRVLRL

Binder UCGUCAUGGCUGAACUGCGGUUGUACACGCUGGUGCAGAGAGAUCGCAU (ssRNA, m6A at A25 (M2 adenosine)) [Bmp10 RNA probe with m6A (49 nt)] has a Kd of 176 nM.

Reference: patent publication US20230348858, “COMPOSITIONS AND METHODS FOR PROMOTING PROLIFERATION IN CARDIOMYOCYTES” (THE TRUSTEES OF INDIANA UNIVERSITY, published 2023)
